Assay results as given in publication PMC5171940.

Molecular target: Aβ oligomers: soluble prefibrillar aggregates of biotinylated Aβ(1–42)
Assay: SPR; BIAcore T200, single-cycle kinetics; biotinylated Aβ (11–28 or oligomeric 1–42) captured on streptavidin-coupled CM5 chip (100–200 RU); antibody as analyte 0.8–500 nM in HBS-P pH 7.4, 0.15 M NaCl; one-to-one Langmuir model

For “Crenezumab, fully humanized anti-Aβ monoclonal IgG4 (antibody)”, the Kd was 0.4 to 0.6 nM.
